In patent US20040033600A1:

Assays:
Assay in all cases: cell-based or functional assay
[1] = biological target: Full length MmRXR (mouse Mus musculus RXRalpha) (Mus musculus) (UniProt P28700)
[2] = biological target: VP16CfEcRCDEF (VP16 activation domain fused to CfEcRCDEF) (Choristoneura fumiferana)
[3] = biological target: VP16DmEcRCDEF (VP16 activation domain fused to DmEcRCDEF) (Drosophila melanogaster)
[4] = biological target: VP16CfUSPDEF (VP16 activation domain fused to the D, E and F domains of Choristoneura fumiferana USP) (Choristoneura fumiferana)
[5] = biological target: VP16MmRXRDEF (VP16 activation domain fused to the DEF domains of mouse RXR) (Mus musculus)

Sequence of Full length MmRXR (mouse Mus musculus RXRalpha) (Mus musculus) (P28700 whole entry, the tested form may be a part): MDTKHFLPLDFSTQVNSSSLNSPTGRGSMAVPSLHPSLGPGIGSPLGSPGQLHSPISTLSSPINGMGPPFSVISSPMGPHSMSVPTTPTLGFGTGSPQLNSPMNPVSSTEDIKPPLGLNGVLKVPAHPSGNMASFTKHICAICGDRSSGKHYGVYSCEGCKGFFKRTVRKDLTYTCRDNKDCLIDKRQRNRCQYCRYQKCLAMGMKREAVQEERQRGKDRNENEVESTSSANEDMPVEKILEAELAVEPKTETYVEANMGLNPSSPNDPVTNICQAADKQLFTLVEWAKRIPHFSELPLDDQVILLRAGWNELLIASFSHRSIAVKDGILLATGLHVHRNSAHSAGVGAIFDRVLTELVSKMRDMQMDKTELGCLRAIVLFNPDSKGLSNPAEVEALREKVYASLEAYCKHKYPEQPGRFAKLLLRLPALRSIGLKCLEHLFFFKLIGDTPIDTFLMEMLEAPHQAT

Work on “Drosophila melanogaster EcR with a modified DNABD fused to VP16AD (EcR component of the DmVgRXR system, Invitrogen)” yielded a Mean Fold Activation Through N-(2-ethyl-3-methoxybenzoyl)-N'-(3,5-dimethylbenzoyl)-N'-t-butylhydrazine; pIND(SP1)LacZ reporter, 3T3 cells (switch 1.8) [1] of 21 fold, a Mean Fold Activation Through N-(2-ethyl-3-methoxybenzoyl)-N'-(3,5-dimethylbenzoyl)-N'-t-butylhydrazine; pIND(SP1)LacZ reporter, 293 cells (switch 1.8) [1] of 21 fold and a Mean Fold Activation with 50 µM N-(2-ethyl-3-methoxybenzoyl)-N'-(3,5-dimethylbenzoyl)-N'-t-butylhydrazine; pIND(SP1)LacZ reporter, CHO cells (switch 1.8) [1] of 14 fold.
With “GAL4MmRXRDEF (GAL4 DNA binding domain fused to MmRXRDEF)” the Mean Fold Activation Through N-(2-ethyl-3-methoxybenzoyl)-N'-(3,5-dimethylbenzoyl)-N'-t-butylhydrazine; pGAL4RELuc reporter, 3T3 cells (switch 1.3) [2] was 47 fold, the Mean Fold Activation Through N-(2-ethyl-3-methoxybenzoyl)-N'-(3,5-dimethylbenzoyl)-N'-t-butylhydrazine; pGAL4RELuc reporter, 293 cells (switch 1.3) [2] was 17 fold and the Mean Fold Activation with 50 µM N-(2-ethyl-3-methoxybenzoyl)-N'-(3,5-dimethylbenzoyl)-N'-t-butylhydrazine; pGAL4RELuc reporter, CHO cells (switch 1.3) [2] was 85 fold. The Mean Fold Induction at 1.0 µM Concentration of Muristerone A; reporter gene, 3T3 cells (switch 1.3) [2] was 1 fold, the Mean Fold Induction at 1.0 µM Concentration of N'-(3,4-(1,2-ethylenedioxy)-2-methylbenzoyl)-N'-(3,5-dimethylbenzoyl)-N'-tert-butylhydrazine; reporter gene, 3T3 cells (switch 1.3) [2] was 54 fold and the Mean Fold Induction at 1.0 µM Concentration of N-(2-ethyl-3-methoxybenzoyl)-N'-(3,5-dimethylbenzoyl)-N'-tert-butylhydrazine; reporter gene, 3T3 cells (switch 1.3) [2] was 71 fold. It also gave a Mean Fold Induction at 1.0 µM Concentration of Ponasterone A; reporter gene, 3T3 cells (switch 1.3) [2] of 1 fold, a Mean Fold Activation Through N-(2-ethyl-3-methoxybenzoyl)-N'-(3,5-dimethylbenzoyl)-N'-t-butylhydrazine; pGAL4RELuc reporter, 3T3 cells (switch 1.4) [3] of 269 fold and a Mean Fold Activation Through N-(2-ethyl-3-methoxybenzoyl)-N'-(3,5-dimethylbenzoyl)-N'-t-butylhydrazine; pGAL4RELuc reporter, 293 cells (switch 1.4) [3] of 3 fold. For the same substance, the Mean Fold Activation with 50 µM N-(2-ethyl-3-methoxybenzoyl)-N'-(3,5-dimethylbenzoyl)-N'-t-butylhydrazine; pGAL4RELuc reporter, CHO cells (switch 1.4) [3] was 312 fold.
“GAL4CfEcRDEF (GAL4 DNA binding domain fused to the D, E and F domains of Choristoneura fumiferana EcR)” was tested, and the Mean Fold Activation Through N-(2-ethyl-3-methoxybenzoyl)-N'-(3,5-dimethylbenzoyl)-N'-t-butylhydrazine; pGAL4RELuc reporter, 3T3 cells (switch 1.2) [4] was 2 fold, the Mean Fold Activation Through N-(2-ethyl-3-methoxybenzoyl)-N'-(3,5-dimethylbenzoyl)-N'-t-butylhydrazine; pGAL4RELuc reporter, 293 cells (switch 1.2) [4] was 2 fold and the Mean Fold Activation with 50 µM N-(2-ethyl-3-methoxybenzoyl)-N'-(3,5-dimethylbenzoyl)-N'-t-butylhydrazine; pGAL4RELuc reporter, CHO cells (switch 1.2) [4] was 2 fold. For the same substance, the Mean Fold Activation Through N-(2-ethyl-3-methoxybenzoyl)-N'-(3,5-dimethylbenzoyl)-N'-t-butylhydrazine; pGAL4RELuc reporter, 3T3 cells (switch 1.1) [5] was 1120 fold, the Mean Fold Activation Through N-(2-ethyl-3-methoxybenzoyl)-N'-(3,5-dimethylbenzoyl)-N'-t-butylhydrazine; pGAL4RELuc reporter, 293 cells (switch 1.1) [5] was 125 fold and the Mean Fold Activation with 50 µM N-(2-ethyl-3-methoxybenzoyl)-N'-(3,5-dimethylbenzoyl)-N'-t-butylhydrazine; pGAL4RELuc reporter, CHO cells (switch 1.1) [5] was 267 fold. For the same substance, the Mean Fold Induction at 1.0 µM Concentration of Muristerone A; reporter gene, 3T3 cells (switch 1.1) [5] was 1 fold, the Mean Fold Induction at 1.0 µM Concentration of N'-(3,4-(1,2-ethylenedioxy)-2-methylbenzoyl)-N'-(3,5-dimethylbenzoyl)-N'-tert-butylhydrazine; reporter gene, 3T3 cells (switch 1.1) [5] was 601 fold and the Mean Fold Induction at 1.0 µM Concentration of N-(2-ethyl-3-methoxybenzoyl)-N'-(3,5-dimethylbenzoyl)-N'-tert-butylhydrazine; reporter gene, 3T3 cells (switch 1.1) [5] was 116 fold. It also gave a Mean Fold Induction at 1.0 µM Concentration of Ponasterone A; reporter gene, 3T3 cells (switch 1.1) [5] of 1 fold.
Substance “CfVgRXR EcR component: truncated CfEcR comprising a partial A/B domain and the complete CDEF domains, fused to VP16AD” has a Mean Fold Activation Through N-(2-ethyl-3-methoxybenzoyl)-N'-(3,5-dimethylbenzoyl)-N'-t-butylhydrazine; pIND(SP1)LacZ reporter, 3T3 cells (switch 1.9) [1] of 19 fold, a Mean Fold Activation Through N-(2-ethyl-3-methoxybenzoyl)-N'-(3,5-dimethylbenzoyl)-N'-t-butylhydrazine; pIND(SP1)LacZ reporter, 293 cells (switch 1.9) [1] of 12 fold and a Mean Fold Activation with 50 µM N-(2-ethyl-3-methoxybenzoyl)-N'-(3,5-dimethylbenzoyl)-N'-t-butylhydrazine; pIND(SP1)LacZ reporter, CHO cells (switch 1.9) [1] of 27 fold.
Substance “GAL4CfUSPDEF (GAL4 DNA binding domain fused to CfUSPDEF)” has a Mean Fold Activation Through N-(2-ethyl-3-methoxybenzoyl)-N'-(3,5-dimethylbenzoyl)-N'-t-butylhydrazine; pGAL4RELuc reporter, 3T3 cells (switch 1.5) [2] of 3 fold, a Mean Fold Activation Through N-(2-ethyl-3-methoxybenzoyl)-N'-(3,5-dimethylbenzoyl)-N'-t-butylhydrazine; pGAL4RELuc reporter, 293 cells (switch 1.5) [2] of 2 fold and a Mean Fold Activation with 50 µM N-(2-ethyl-3-methoxybenzoyl)-N'-(3,5-dimethylbenzoyl)-N'-t-butylhydrazine; pGAL4RELuc reporter, CHO cells (switch 1.5) [2] of 2 fold.
